Source: publication PMC5221731

Target: N-terminally hexahistidine-tagged wildtype Chinese hamster BiP, unmodified (non-AMPylated) (Chinese hamster) (UniProt G3I8R9)
Test: native gel or EMSA

**Q.** “N-terminally hexahistidine-tagged wildtype Chinese hamster BiP, unmodified (non-AMPylated) (from UniProt G3I8R9 19-654) (natural protein)” was tested. Which stoichiometry N did it give?
**A.** 2
